This note sets out measurements from publication PMC7582152 (2020).

B1: wild-type canine cardiac calsequestrin (Casq2) [canine] / ER luminal domain of IRE1α (IRE1-NLD) [modified: covalently labeled with a red fluorescent tag (Monolith NT Protein Labeling Kit RED-NHS); covalently labeled with a red fluorescent … (parent complex)
chain 1: EEGLNFPTYDGKDRVVSLTEKNFKQVLKKYDVLCLYYHESVSSDKVAQKQFQLKEIVLELVAQVLEHKDIGFVMVDAKKEAKLAKKLGFDEEGSLYVLKGDRTIEFDGEFAADVLVEFLLDLIEDPVEIINSKLEVQAFERIEDQIKLIGFFKSEESEYYKAFEEAAEHFQPYIKFFATFDKGVAKKLSLKMNEVDFYEPFMDEPIAIPDKPYTEEELVEFVKEHQRPTLRRLRPEDMFETWEDDLNGIHIVAFAERSDPDGYEFLEILKQVARDNTDNPDLSIVWIDPDDFPLLVAYWEKTFKIDLFKPQIGVVNVTDADSVWMEIPDDDDLPTAEELEDWIEDVLSGKINTEDDDNEEGDDGDDDEDDDDDDGNNSDEESNDDSDDDDE
chain 2: IFGSTSTVTLPETLLFVSTLDGSLHAVSKRTGSIKWTLKEDPVLQVPTHVEEPAFLPDPNDGSLYTLGSKNNEGLTKLPFTIPELVQASPCRSSDGILYMGKKQDIWYVIDLLTGEKQQTLSSAFADSLCPSTSLLYLGRTEYTITMYDTKTRELRWNATYFDYAASLPEDDVDYKMSHFVSNGDGLVVTVDSESGDVLWIQNYASPVVAFYVWQREGLRKVMHINVAVETLRYLTFMSGEVGRITKWKYPFPKETEAKSKLTPTLYVGKYSTSLYASPSMVHEGVAVVPRGSTLPLLEGPQTDGVTIGDKGECVITPSTDVKFDPGLKSKNKLNYLRNYWLLIGHHETPLSASTKMLERFPNNLPKHRENVIPADSEKKSFEEVINLVDQTSENAPTTVSRDVEEKPAHAPARPEAPVDSMLKD

Variants of B1 are the subject of the test. Briefly: microscale thermophoresis (MST); IRE1-NLD covalently labeled with a red fluorescent tag; increasing amounts of Casq2 or Casq2 mutant; three independent measurements; parent: 4.3e+03 nM; read off a plot. A general note: Microscale thermophoresis detects binding through changes in fluorescence in a small temperature gradient.
As a reminder, the Kd is the concentration at which binding is half-saturated. Regarding chain 1 L148H, the Kd is approximately 2.8 µM.

Take chain 1 K161R: the Kd is approximately 1.4 µM.

Take chain 1 R14Q: the dissociation constant (Kd) is approximately 5.9 µM.

Consider chain 1 P310S, for which the Kd is approximately 3.2 µM.

With chain 1 D288H, the Kd is approximately 3.3 µM.

Take chain 1 G313R: the Kd is approximately 4.3 µM.

Take chain 1 D332G: the Kd was approximately 4.8 µM.
